# Read-outs that look alike come from different tables or passages of the source. Positions of bridges follow the written chain, without caps; N, C: chain ends. Non-standard residues stand in square brackets, D forms with d. No end group written: not given here. *: point of attachment. X10 = 1‑((2,4-dinitrophenyl)sulfonyl)piperidin‑4‑yl carbamate, O=C(OC1CCN(S(=O)(=O)c2ccc([N+](=O)[O-])cc2[N+](=O)[O-])CC1)*; X9 = 1‑((5-chloro-2-methoxyphenyl)sulfonyl)piperidin‑4‑yl carbamate, COc1ccc(Cl)cc1S(=O)(=O)N1CCC(OC(=O)*)CC1; X11 = 1‑((3-fluorophenyl)sulfonyl)piperidin‑4‑yl carbamate, O=C(OC1CCN(S(=O)(=O)c2cccc(F)c2)CC1)*; X8 = 1‑((4-chlorophenyl)sulfonyl)piperidin‑4‑yl carbamate, O=C(OC1CCN(S(=O)(=O)c2ccc(Cl)cc2)CC1)*; X13 = 1‑((2-fluorophenyl)sulfonyl)piperidin‑4‑yl carbamate, O=C(OC1CCN(S(=O)(=O)c2ccccc2F)CC1)*; X12 = 1‑(mesitylsulfonyl)piperidin‑4‑yl carbamate, Cc1cc(C)c(S(=O)(=O)N2CCC(OC(=O)*)CC2)c(C)c1; X7 = 1‑acetylpiperidin‑4‑yl carbamate, CC(=O)N1CCC(OC(=O)*)CC1; kbt = C-terminal Arg ketobenzothiazole; Fmoc = O=C(OCC1c2ccccc2-c2ccccc21)*; kt = C-terminal Arg ketothiazole
# T1: recombinant N-terminal His-tag HGFA serine protease domain (UniProt Q04756 373-655)
# T1 sequence (looked up): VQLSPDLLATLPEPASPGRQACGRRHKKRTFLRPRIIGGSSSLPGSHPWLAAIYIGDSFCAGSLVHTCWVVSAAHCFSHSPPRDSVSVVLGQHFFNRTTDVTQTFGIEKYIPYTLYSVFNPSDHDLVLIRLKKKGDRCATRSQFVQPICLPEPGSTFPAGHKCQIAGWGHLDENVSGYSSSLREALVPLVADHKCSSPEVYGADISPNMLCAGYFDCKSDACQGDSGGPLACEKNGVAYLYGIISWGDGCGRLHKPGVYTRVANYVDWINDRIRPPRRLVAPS
# T2: matriptase (#3946-SE-010, R&D Systems) (UniProt Q9Y5Y6 615-855)
# T2 sequence (looked up): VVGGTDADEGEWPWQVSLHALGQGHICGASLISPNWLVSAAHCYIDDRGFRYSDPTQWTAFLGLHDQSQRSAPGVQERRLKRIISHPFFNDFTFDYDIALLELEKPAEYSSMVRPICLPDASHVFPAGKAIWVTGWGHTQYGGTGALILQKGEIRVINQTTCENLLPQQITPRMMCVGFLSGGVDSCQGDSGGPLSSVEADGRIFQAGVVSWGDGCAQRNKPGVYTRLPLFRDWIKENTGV
# T3: KLK5 (#1108-SE-010, R&D Systems) (UniProt Q9Y337 23-293, limits assumed)
# T3 sequence (looked up): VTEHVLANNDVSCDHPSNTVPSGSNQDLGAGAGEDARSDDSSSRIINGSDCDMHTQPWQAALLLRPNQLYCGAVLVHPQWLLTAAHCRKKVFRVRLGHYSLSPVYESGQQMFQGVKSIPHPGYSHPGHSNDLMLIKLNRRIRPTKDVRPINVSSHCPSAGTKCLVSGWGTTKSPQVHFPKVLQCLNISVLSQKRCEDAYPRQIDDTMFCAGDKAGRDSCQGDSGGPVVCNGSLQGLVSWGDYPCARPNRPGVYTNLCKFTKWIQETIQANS
# What was measured:
# Assay in all cases: cell-based or functional assay
# [1] = biological target: T1, recombinant N-terminal His-tag HGFA …
# [2] = biological target: T2, matriptase (#3946-SE-010, R&D Systems)
# [3] = biological target: T4, activated hepsin (#4776-SE-010, R&D Systems) (UniProt P05981 45-417, limits assumed)
# T4 sequence (P05981 45-417 limits assumed): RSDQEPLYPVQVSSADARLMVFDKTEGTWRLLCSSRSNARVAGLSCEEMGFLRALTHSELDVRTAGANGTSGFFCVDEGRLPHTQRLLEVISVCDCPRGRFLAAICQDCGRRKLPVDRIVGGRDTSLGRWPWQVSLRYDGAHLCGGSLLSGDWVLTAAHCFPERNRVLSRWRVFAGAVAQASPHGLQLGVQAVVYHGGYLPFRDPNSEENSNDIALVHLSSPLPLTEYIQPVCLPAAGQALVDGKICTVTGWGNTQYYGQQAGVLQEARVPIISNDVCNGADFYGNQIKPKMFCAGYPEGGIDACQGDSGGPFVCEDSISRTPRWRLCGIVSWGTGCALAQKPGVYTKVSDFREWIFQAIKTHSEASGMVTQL
# [4] = biological target: T1, recombinant N-terminal His-tag HGFA …; remark: listed apart in the source
# [5] = biological target: T2, matriptase (#3946-SE-010, R&D Systems); remark: listed apart in the source
# [6] = biological target: T4, activated hepsin (#4776-SE-010, R&D …); remark: listed apart in the source
# human TMPRSS2 = human TMPRSS2 (human, UniProt O15393 1-492)
# human TMPRSS2, sequence (O15393 whole entry): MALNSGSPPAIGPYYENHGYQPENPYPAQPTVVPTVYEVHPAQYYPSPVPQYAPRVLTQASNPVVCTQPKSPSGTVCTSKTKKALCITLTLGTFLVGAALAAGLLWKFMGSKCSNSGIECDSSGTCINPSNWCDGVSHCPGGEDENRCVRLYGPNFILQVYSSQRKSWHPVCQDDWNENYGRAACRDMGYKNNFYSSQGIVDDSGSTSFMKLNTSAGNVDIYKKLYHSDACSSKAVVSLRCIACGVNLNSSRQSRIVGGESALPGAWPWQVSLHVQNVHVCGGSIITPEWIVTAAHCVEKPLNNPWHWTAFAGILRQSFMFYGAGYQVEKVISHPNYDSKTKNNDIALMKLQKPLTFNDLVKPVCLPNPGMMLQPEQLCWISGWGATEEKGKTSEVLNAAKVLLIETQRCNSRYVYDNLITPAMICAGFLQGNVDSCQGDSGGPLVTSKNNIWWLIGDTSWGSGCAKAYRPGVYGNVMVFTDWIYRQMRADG
# [7] = biological target: T1, recombinant N-terminal His-tag HGFA …; remark: listed apart in the source
# [8] = biological target: T2, matriptase (#3946-SE-010, R&D Systems); remark: listed apart in the source
# [9] = biological target: T4, activated hepsin (#4776-SE-010, R&D …); remark: listed apart in the source
# [10] = biological target: recombinant thrombin (#1473-SE-010, R&D Systems) (UniProt P00734 44-622)
# [11] = biological target: Factor Xa (#1063-SE-010, R&D Systems) (UniProt P00742 41-488, limits assumed)
# Factor Xa (#1063-SE-010, R&D Systems), sequence (P00742 41-488 limits assumed): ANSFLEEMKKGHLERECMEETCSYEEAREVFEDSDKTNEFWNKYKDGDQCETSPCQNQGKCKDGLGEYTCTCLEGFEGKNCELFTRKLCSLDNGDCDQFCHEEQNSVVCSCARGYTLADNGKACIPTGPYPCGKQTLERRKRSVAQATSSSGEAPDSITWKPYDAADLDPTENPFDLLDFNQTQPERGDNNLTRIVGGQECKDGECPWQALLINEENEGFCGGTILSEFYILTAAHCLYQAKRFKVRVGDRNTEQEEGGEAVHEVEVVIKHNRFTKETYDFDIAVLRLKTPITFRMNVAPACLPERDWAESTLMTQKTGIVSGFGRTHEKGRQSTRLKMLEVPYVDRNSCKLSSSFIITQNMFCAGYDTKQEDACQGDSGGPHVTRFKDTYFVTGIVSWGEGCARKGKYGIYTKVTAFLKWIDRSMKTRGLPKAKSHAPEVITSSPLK
# [12] = biological target: T3, KLK5 (#1108-SE-010, R&D Systems)
Binder,HGFA IC50 [1] [nM],Matriptase IC50 [2] [nM],Hepsin IC50 [3] [nM],HGFA (IC50 nM) [7] [nM],Thrombin* (IC50 nM) [10] [nM],Factor Xa* (IC50 nM) [11] [nM],further results
X13-Leu-Arg-kbt [1-((2-fluorophenyl)sulfonyl)piperidin-4-yl Leu-Arg-kbt carbamate (8g)],18000,4500,70,–,–,–,–
"Ac-WLFR-kbt [Ac-WLFR-kbt, ZFH7064]",–,–,–,–,–,–,HGFA IC50 [4]: 266 nM; Matriptase IC50 [5]: 12 nM; Hepsin IC50 [6]: 0.79 nM; Calu-3 EC50 (human TMPRSS2): 150 nM
X8-Leu-Arg-kbt [1-((4-chlorophenyl)sulfonyl)piperidin-4-yl Leu-Arg-kbt carbamate (8i)],9000,2400,60,–,–,–,–
Ac-IQFR-kbt [MM3116 Ac-IQFR-kbt],–,–,–,30.2,> 20,792,Matriptase (IC50 nM) [8]: 0.923 nM; Hepsin (IC50 nM) [9]: 0.14 nM
"X10-Leu-Arg-kbt [1-((2,4-dinitrophenyl)sulfonyl)piperidin-4-yl Leu-Arg-kbt carbamate (8k)]",> 20000,10000,110,–,–,–,–
"Ac-SQLR-kt [Ac-SQLR-kt, ZFH6138]",–,–,–,–,–,–,KLK5 IC50 [12]: 3940 nM
"Ac-DQKR-kbt (lactam 1-3; also: N-terminal acetyl described as 6-acetamido) [Cyclo(DQK)R-kbt, VD3152]",–,–,–,16100,> 20000,> 20000,Matriptase (IC50 nM) [8]: 7.7 nM; Hepsin (IC50 nM) [9]: 22.2 nM; HGFA IC50 [4]: 16100 nM; Matriptase IC50 [5]: 7.7 nM; Hepsin IC50 [6]: 22 nM; Calu-3 EC50 (human TMPRSS2): 138 nM
"Ac-[dW]-Phe-Arg-kbt [Ac-dWFR-kbt, PK-1-89A1]",–,–,–,–,–,–,HGFA IC50 [4]: 346 nM; Matriptase IC50 [5]: 29 nM; Hepsin IC50 [6]: 100 nM; Calu-3 EC50 (human TMPRSS2): 32 nM
Fmoc-Pro-Arg-kbt [FmocPRkbt],–,–,–,–,–,–,KLK5 IC50 [12]: 3680 nM
X9-Leu-Arg-kbt [1-((5-chloro-2-methoxyphenyl)sulfonyl)piperidin-4-yl Leu-Arg-kbt carbamate (8l)],6300,4000,60,–,–,–,–
"Ac-SKLR-kbt [Ac-SKLR kbt, ZFH7053]",–,–,–,–,–,–,KLK5 IC50 [12]: 2120 nM
Ac-GQFR-kbt [MM3122 Ac-GQFR-kbt],–,–,–,32.5,> 20,700,Matriptase (IC50 nM) [8]: 0.314 nM; Hepsin (IC50 nM) [9]: 0.194 nM
"Ac-Leu-Leu-Arg-kt [Ac-LLR-kt, ZFH6201]",–,–,–,–,–,–,HGFA IC50 [4]: 506 nM; Matriptase IC50 [5]: 56 nM; Hepsin IC50 [6]: 4.6 nM; Calu-3 EC50 (human TMPRSS2): 349 nM
Fmoc-Trp-Arg-kbt [FmocWRkbt],–,–,–,–,–,–,KLK5 IC50 [12]: 4390 nM
Ac-PQFR-kbt [MM3123 Ac-PQFR-kbt],–,–,–,75,> 20,199,Matriptase (IC50 nM) [8]: 0.316 nM; Hepsin (IC50 nM) [9]: 0.136 nM
X12-Leu-Arg-kbt [1-(mesitylsulfonyl)piperidin-4-yl Leu-Arg-kbt carbamate (8m)],8800,> 20000,110,–,–,–,–
{2‑phenyl‑1‑(piperidin-4-yl)ethyl carbamate}-Leu-Arg-kbt [2-phenyl-1-(piperidin-4-yl)ethyl Leu-Arg-kbt carbamate (11b)],6000,20,2,–,–,–,–
Leu-Leu-Arg-{kbt-Val-NH2} (also: N-terminal cap inconsistent in filing (H or Ac)) [H-LLR-kbt V-amide ZFH7182],–,–,–,–,–,–,HGFA IC50 [4]: 44 nM; Hepsin IC50 [6]: 0.01 nM; Calu-3 EC50 (human TMPRSS2): 2060 nM
"Ac-DMKR-kbt (lactam 1-3; not fully specified; printed as Cyclo(DMK)R-kbt; also: N-terminal acetyl described as 6-acetamido) [Cyclo(DMK)R-kbt, VD3173]",–,–,–,3240,> 20000,1400,Matriptase (IC50 nM) [8]: 0.98 nM; Hepsin (IC50 nM) [9]: 5.9 nM; HGFA IC50 [4]: 3240 nM; Matriptase IC50 [5]: 1 nM; Hepsin IC50 [6]: 5.9 nM; Calu-3 EC50 (human TMPRSS2): 119 nM
Ac-MQFR-kbt [MM3130 Ac-MQFR-kbt],–,–,–,36.5,> 20,342,Matriptase (IC50 nM) [8]: 0.552 nM; Hepsin (IC50 nM) [9]: 0.135 nM
Ac-LQFR-kbt [MM3131 Ac-LQFR-kbt],–,–,–,98.2,> 20,219,Matriptase (IC50 nM) [8]: 1.8 nM; Hepsin (IC50 nM) [9]: 0.247 nM
"Ac-Trp-Phe-Arg-kbt [Ac-WFR-kbt, PK-1-102A1]",–,–,–,–,–,–,KLK5 IC50 [12]: > 20000 nM
"Ac-KQLR-kbt [Ac-KQLR-kbt, ZFH7006]",–,–,–,–,–,–,KLK5 IC50 [12]: 1790 nM; HGFA IC50 [4]: 60 nM; Matriptase IC50 [5]: 1.1 nM; Hepsin IC50 [6]: 0.17 nM; Calu-3 EC50 (human TMPRSS2): 78 nM
X11-Leu-Arg-kbt [1-((3-fluorophenyl)sulfonyl)piperidin-4-yl Leu-Arg-kbt carbamate (8j)],> 20000,7500,70,–,–,–,–
X7-Leu-Arg-kbt [1-acetylpiperidin-4-yl Leu-Arg-kbt carbamate (8e)],> 20000,640,20,–,–,–,–
Ac-Gln-Phe-Arg-kbt [MM3144 Ac-QFR-kbt],–,–,–,13.8,> 20,1.4,–
